Biological target: human C1q (R&D Systems) (human) (UniProt P02745)
Experiment: C1q ELISA, absorbance at 450 nm

Sequence of UniProt P02745 (P02745 23-245 limits assumed, chain 1 of 3): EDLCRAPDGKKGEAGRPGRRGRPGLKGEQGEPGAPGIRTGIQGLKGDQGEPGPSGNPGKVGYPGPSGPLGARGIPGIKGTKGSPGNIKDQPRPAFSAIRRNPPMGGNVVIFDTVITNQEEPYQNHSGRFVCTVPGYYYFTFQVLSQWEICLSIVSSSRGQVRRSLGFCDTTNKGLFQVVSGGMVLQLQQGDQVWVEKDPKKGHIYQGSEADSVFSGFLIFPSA
Sequence of UniProt P02745 (P02746 28-253 limits assumed, chain 2 of 3, further chain): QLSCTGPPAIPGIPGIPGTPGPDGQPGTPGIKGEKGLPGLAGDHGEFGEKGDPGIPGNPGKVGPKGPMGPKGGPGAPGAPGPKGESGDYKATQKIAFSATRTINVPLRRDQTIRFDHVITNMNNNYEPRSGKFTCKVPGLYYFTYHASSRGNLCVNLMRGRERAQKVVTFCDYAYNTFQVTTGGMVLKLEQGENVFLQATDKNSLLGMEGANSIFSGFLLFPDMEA
Sequence of UniProt P02745 (P02747 29-245 limits assumed, chain 3 of 3, further chain): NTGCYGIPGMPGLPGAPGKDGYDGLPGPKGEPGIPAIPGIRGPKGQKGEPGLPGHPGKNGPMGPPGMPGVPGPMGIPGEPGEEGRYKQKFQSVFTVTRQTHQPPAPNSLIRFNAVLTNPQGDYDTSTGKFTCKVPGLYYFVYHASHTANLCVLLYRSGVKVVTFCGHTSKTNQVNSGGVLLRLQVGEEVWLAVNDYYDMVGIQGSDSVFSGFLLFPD

fold reduction of complement activity (C1q ELISA) against the glycosylated Fc fragment: 2 times
Substance: dCysG1Fc (recombinant aglycosylated IgG1 Fc derivative, twelve amino acid deletion at the amino terminus of the native hinge region) (from UniProt P01857 111-330)

Source: US20090053246A1
